The target in the assay is mouse embryonic heparan sulfate (HS) coupled to HiTrap column. The assay is described as follows: HS affinity chromatography (FPLC). Particulars: 0-1.5 M NaCl gradient from fraction 5 to 14, parent: est. 100, read off a plot.
[1] abbreviates: value is the height of the salt-eluted peak at fraction 12.

For three substances, response results are on record in article PMC4873810.

Turning to “Scube2 (signal peptide, CUB domain, epidermal growth factor (EGF)-like protein 2), full-length, FLAG-tagged (from UniProt Q9NQ36) K608A; R609A; K612A; R613A; R615A; K616A; R619A; R622A; K623A; H626A; R627A; K643A; K644A; R647A”, under setting [1], the response came out at 11%.
Same read-out and setting: to “Scube2 (signal peptide, CUB domain, epidermal growth factor (EGF)-like protein 2), full-length, FLAG-tagged (from UniProt Q9NQ36) K608E; R609E; K612E; R613E; R615E; K616E; R619E; R622E; K623E; H626E; R627E” belongs 4%.
For the substance “Spacer (isolated Scube2 spacer domain) K608A; R609A; K612A; R613A; R615A; K616A; R619A; R622A; K623A; H626A; R627A; K643A; K644A; R647A”, the response (value is the height of the salt-eluted peak at about fraction 12) worked out at 5%.
